B1: Fibulin-5 (Homo sapiens), Q9UBX5 (parent)
chain: MPGIKRILTVTILALCLPSPGNAQAQCTNGFDLDRQSGQCLDIDECRTIPEACRGDMMCVNQNGGYLCIPRTNPVYRGPYSNPYSTPYSGPYPAAAPPLSAPNYPTISRPLICRFGYQMDESNQCVDVDECATDSHQCNPTQICINTEGGYTCSCTDGYWLLEGQCLDIDECRYGYCQQLCANVPGSYSCTCNPGFTLNEDGRSCQDVNECATENPCVQTCVNTYGSFICRCDPGYELEEDGVHCSDMDECSFSEFLCQHECVNQPGTYFCSCPPGYILLDDNRSCQDINECEHRNHTCNLQQTCYNLQGGFKCIDPIRCEEPYLRISDNRCMCPAENPGCRDQPFTILYRDMDVVSGRSVPADIFQMQATTRYPGAYYIFQIKSGNEGREFYMRQTGPISATLVMTRPIKGPREIQLDLEMITVNTVINFRGSSVIRLRIYVSQYPF

Variants of: B1
Conditions: with eln_bovin ELN

Row | Variant | effect of a mutation on the interaction
1 | S227P | decreasing interaction strength
2 | C217R | decreasing interaction strength
